Here are results for 18 molecules from patent US20190144529A1 (UCB, published 2019).

The target of this test is T1, human serum albumin (human, UniProt P02768 25-609).
T1 construct: mature; Bought purified serum albumin; also called HSA; Human albumin
Kind of test: SPR, Fab captured; albumin taken as HSA.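 Also: antibody held on a capture surface, albumin injected for 3 min association then dissociation followed, signals corrected using a blank reference flow cell and buffer-only injections.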

Description: Each assay cycle consisted of firstly capturing the antibody sample using a 1 min injection, before an association phase consisting of a 3 min injection of albumin, after which dissociation was monitored. After each cycle, the capture surface was regenerated with two 1 min injections of 40 mM HCl followed by 30 s of 5 mM NaOH. The flow rates used were 10 μl/min for capture, 30 μl/min for both the association and dissociation phases, and 10 μl/min for regeneration. A blank flow-cell was used for reference subtraction and buffer-blank injections were included to subtract instrument noise and drift.

B1: CA645 gL4gH27 Fab (Fab, V domains shown)
VH: EVQLLESGGGLVQPGGSLRLSCAVSGIDLSNYAINWVRQAPGKGLEWIGIIWGSGTTFYATWAKGRFTISRDNSKNTVYLQMNSLRAEDTAVYYCARTVPGYSTAPYFDLWGQGTLVTVSS
VL: DIQMTQSPSSVSASVGDRVTITCQSSPSVWSNFLSWYQQKPGKAPKLLIYEASKLTSGVPSRFSGSGSGTDFTLTISSLQPEDFATYYCGGGYSSISDTTFGGGTKVEIK
notes: Fab: human gamma1 CH1, human kappa (Km3); Kabat numbering
Take B1: the Kd worked out at 1.73 nM, the koff amounted to 8.4e-05 s⁻¹ and the kon came to 48300 M⁻¹ s⁻¹.

B2: CA645 gL34gH5 Fab (Fab, V domains shown)
VH: EVQLLESGGGLVQPGGSLRLSCAVSGIDLSNYAINWVRQAPGKGLEWIGIIWASGTTFYATWAKGRFTISRDNSKNTVYLQMNSLRAEDTAVYYCARTVPGYSTAPYFDLWGQGTLVTVSS
VL: DIQMTQSPSSVSASVGDRVTITCQSSPSVWSNFLSWYQQKPGKAPKLLIYEASKLTSGVPSRFSGSGSGTDFTLTISSLQPEDFATYYCGGGYTSISDTTFGGGTKVEIK
notes: as for B1
B2 had a Kd of 3.41 nM, a koff of 0.00019 s⁻¹ and a kon of 55800 M⁻¹ s⁻¹.

B3: CA645 gL4gH40 Fab (Fab, V domains shown)
VH: EVQLLESGGGLVQPGGSLRLSCAVSGIDLSNYAINWVRQAPGKGLEWIGIIWASGTTFYATWAKGRFTISRDNSKNTVYLQMNSLRAEDTAVYYCARTVPTYSTAPYFDLWGQGTLVTVSS
VL: DIQMTQSPSSVSASVGDRVTITCQSSPSVWSNFLSWYQQKPGKAPKLLIYEASKLTSGVPSRFSGSGSGTDFTLTISSLQPEDFATYYCGGGYSSISDTTFGGGTKVEIK
notes: as for B1
The molecule B3 had a Kd of 6.4 nM, a dissociation rate constant (koff) of 0.000356 s⁻¹ and a kon of 55600 M⁻¹ s⁻¹.

B4: CA645 gL4gH28 Fab (Fab, V domains shown)
VH: EVQLLESGGGLVQPGGSLRLSCAVSGIDLSNYAINWVRQAPGKGLEWIGIIWVSGTTFYATWAKGRFTISRDNSKNTVYLQMNSLRAEDTAVYYCARTVPGYSTAPYFDLWGQGTLVTVSS
VL: DIQMTQSPSSVSASVGDRVTITCQSSPSVWSNFLSWYQQKPGKAPKLLIYEASKLTSGVPSRFSGSGSGTDFTLTISSLQPEDFATYYCGGGYSSISDTTFGGGTKVEIK
notes: as for B1
In the case of B4, binding was characterised by a dissociation constant (Kd) of 10.6 nM, the off-rate (koff) is 0.000515 s⁻¹ and the kon is 48500 M⁻¹ s⁻¹.

B5: CA645 gL4gH30 Fab (Fab, V domains shown)
VH: EVQLLESGGGLVQPGGSLRLSCAVSGIDLSNYAINWVRQAPGKGLEWIGIIWTSGTTFYATWAKGRFTISRDNSKNTVYLQMNSLRAEDTAVYYCARTVPGYSTAPYFDLWGQGTLVTVSS
VL: DIQMTQSPSSVSASVGDRVTITCQSSPSVWSNFLSWYQQKPGKAPKLLIYEASKLTSGVPSRFSGSGSGTDFTLTISSLQPEDFATYYCGGGYSSISDTTFGGGTKVEIK
notes: as for B1
Consider B5, for which the Kd stood at 23.2 nM, the koff amounted to 0.00102 s⁻¹ and the kon amounted to 43800 M⁻¹ s⁻¹.

B6: CA645 gL4gH29 Fab (Fab, V domains shown)
VH: EVQLLESGGGLVQPGGSLRLSCAVSGIDLSNYAINWVRQAPGKGLEWIGIIWSSGTTFYATWAKGRFTISRDNSKNTVYLQMNSLRAEDTAVYYCARTVPGYSTAPYFDLWGQGTLVTVSS
VL: DIQMTQSPSSVSASVGDRVTITCQSSPSVWSNFLSWYQQKPGKAPKLLIYEASKLTSGVPSRFSGSGSGTDFTLTISSLQPEDFATYYCGGGYSSISDTTFGGGTKVEIK
notes: as for B1
With B6, the Kd was determined as 7.97 nM, the koff was determined as 0.00038 s⁻¹ and the kon came out at 47700 M⁻¹ s⁻¹.

B7: CA645 gL27gH5 Fab (Fab, V domains shown)
VH: EVQLLESGGGLVQPGGSLRLSCAVSGIDLSNYAINWVRQAPGKGLEWIGIIWASGTTFYATWAKGRFTISRDNSKNTVYLQMNSLRAEDTAVYYCARTVPGYSTAPYFDLWGQGTLVTVSS
VL: DIQMTQSPSSVSASVGDRVTITCQSSPSVWSNYLSWYQQKPGKAPKLLIYEASKLTSGVPSRFSGSGSGTDFTLTISSLQPEDFATYYCGGGYSSISDTTFGGGTKVEIK
notes: as for B1
Take B7: the Kd came out at 9.44 nM, the koff is 0.000586 s⁻¹ and the kon was 62100 M⁻¹ s⁻¹.

B8: CA645 gL10gH5 Fab (Fab, V domains shown)
VH: EVQLLESGGGLVQPGGSLRLSCAVSGIDLSNYAINWVRQAPGKGLEWIGIIWASGTTFYATWAKGRFTISRDNSKNTVYLQMNSLRAEDTAVYYCARTVPGYSTAPYFDLWGQGTLVTVSS
VL: DIQMTQSPSSVSASVGDRVTITCQSSPAVWSNFLSWYQQKPGKAPKLLIYEASKLTSGVPSRFSGSGSGTDFTLTISSLQPEDFATYYCGGGYSSISDTTFGGGTKVEIK
notes: as for B1
Take B8: the Kd turned out to be 1.03 nM, the koff turned out to be 0.000172 s⁻¹ and the association rate constant (kon) turned out to be 138000 M⁻¹ s⁻¹.

B9: CA645 gL4gH43 Fab (Fab, V domains shown)
VH: EVQLLESGGGLVQPGGSLRLSCAVSGIDLSNYAINWVRQAPGKGLEWIGIIWASGTTFYATWAKGRFTISRDNSKNTVYLQMNSLRAEDTAVYYCARTVPEYSTAPYFDLWGQGTLVTVSS
VL: DIQMTQSPSSVSASVGDRVTITCQSSPSVWSNFLSWYQQKPGKAPKLLIYEASKLTSGVPSRFSGSGSGTDFTLTISSLQPEDFATYYCGGGYSSISDTTFGGGTKVEIK
notes: as for B1
The molecule B9 displayed a Kd of 7.39 nM, an off-rate (koff) of 0.000391 s⁻¹ and a kon of 52900 M⁻¹ s⁻¹.

B10: CA645 gL12gH5 Fab (Fab, V domains shown)
VH: EVQLLESGGGLVQPGGSLRLSCAVSGIDLSNYAINWVRQAPGKGLEWIGIIWASGTTFYATWAKGRFTISRDNSKNTVYLQMNSLRAEDTAVYYCARTVPGYSTAPYFDLWGQGTLVTVSS
VL: DIQMTQSPSSVSASVGDRVTITCQSSPDVWSNFLSWYQQKPGKAPKLLIYEASKLTSGVPSRFSGSGSGTDFTLTISSLQPEDFATYYCGGGYSSISDTTFGGGTKVEIK
notes: as for B1
B10 registered an equilibrium dissociation constant (Kd) of 1.88 nM, a koff of 0.000104 s⁻¹ and a kon of 55400 M⁻¹ s⁻¹.

B11: CA645 gL4gH41 Fab (Fab, V domains shown)
VH: EVQLLESGGGLVQPGGSLRLSCAVSGIDLSNYAINWVRQAPGKGLEWIGIIWASGTTFYATWAKGRFTISRDNSKNTVYLQMNSLRAEDTAVYYCARTVPDYSTAPYFDLWGQGTLVTVSS
VL: DIQMTQSPSSVSASVGDRVTITCQSSPSVWSNFLSWYQQKPGKAPKLLIYEASKLTSGVPSRFSGSGSGTDFTLTISSLQPEDFATYYCGGGYSSISDTTFGGGTKVEIK
notes: as for B1
As to B11, the Kd is 6.54 nM, the koff amounted to 0.000351 s⁻¹ and the kon stood at 53700 M⁻¹ s⁻¹.

B12: CA645 gL4gH39 Fab (Fab, V domains shown)
VH: EVQLLESGGGLVQPGGSLRLSCAVSGIDLSNYAINWVRQAPGKGLEWIGIIWASGTTFYATWAKGRFTISRDNSKNTVYLQMNSLRAEDTAVYYCARTVPIYSTAPYFDLWGQGTLVTVSS
VL: DIQMTQSPSSVSASVGDRVTITCQSSPSVWSNFLSWYQQKPGKAPKLLIYEASKLTSGVPSRFSGSGSGTDFTLTISSLQPEDFATYYCGGGYSSISDTTFGGGTKVEIK
notes: as for B1
With B12, the Kd turned out to be 14 nM, the koff amounted to 0.00075 s⁻¹ and the kon turned out to be 53500 M⁻¹ s⁻¹.

B13: CA645 gL14gH5 Fab (Fab, V domains shown)
VH: EVQLLESGGGLVQPGGSLRLSCAVSGIDLSNYAINWVRQAPGKGLEWIGIIWASGTTFYATWAKGRFTISRDNSKNTVYLQMNSLRAEDTAVYYCARTVPGYSTAPYFDLWGQGTLVTVSS
VL: DIQMTQSPSSVSASVGDRVTITCQSSPLVWSNFLSWYQQKPGKAPKLLIYEASKLTSGVPSRFSGSGSGTDFTLTISSLQPEDFATYYCGGGYSSISDTTFGGGTKVEIK
notes: as for B1
B13 gave a Kd of 1.51 nM, a koff of 8.7e-05 s⁻¹ and a kon of 57700 M⁻¹ s⁻¹.

B14: CA645 gL4gH38 Fab (Fab, V domains shown)
VH: EVQLLESGGGLVQPGGSLRLSCAVSGIDLSNYAINWVRQAPGKGLEWIGIIWASGTTYYATWAKGRFTISRDNSKNTVYLQMNSLRAEDTAVYYCARTVPGYSTAPYFDLWGQGTLVTVSS
VL: DIQMTQSPSSVSASVGDRVTITCQSSPSVWSNFLSWYQQKPGKAPKLLIYEASKLTSGVPSRFSGSGSGTDFTLTISSLQPEDFATYYCGGGYSSISDTTFGGGTKVEIK
notes: as for B1
B14 displayed a Kd of 12.2 nM, a koff of 0.000581 s⁻¹ and a kon of 47500 M⁻¹ s⁻¹.

B15: CA645 gL13gH5 Fab (Fab, V domains shown)
VH: EVQLLESGGGLVQPGGSLRLSCAVSGIDLSNYAINWVRQAPGKGLEWIGIIWASGTTFYATWAKGRFTISRDNSKNTVYLQMNSLRAEDTAVYYCARTVPGYSTAPYFDLWGQGTLVTVSS
VL: DIQMTQSPSSVSASVGDRVTITCQSSPIVWSNFLSWYQQKPGKAPKLLIYEASKLTSGVPSRFSGSGSGTDFTLTISSLQPEDFATYYCGGGYSSISDTTFGGGTKVEIK
notes: as for B1
Molecule B15 gave an equilibrium dissociation constant (Kd) of 1.88 nM, a koff of 0.000108 s⁻¹ and a kon of 57600 M⁻¹ s⁻¹.

B16: CA645 gL4gH44 Fab (Fab, V domains shown)
VH: EVQLLESGGGLVQPGGSLRLSCAVSGIDLSNYAINWVRQAPGKGLEWIGIIWASGTTFYATWAKGRFTISRDNSKNTVYLQMNSLRAEDTAVYYCARTVPLYSTAPYFDLWGQGTLVTVSS
VL: DIQMTQSPSSVSASVGDRVTITCQSSPSVWSNFLSWYQQKPGKAPKLLIYEASKLTSGVPSRFSGSGSGTDFTLTISSLQPEDFATYYCGGGYSSISDTTFGGGTKVEIK
notes: as for B1
As to B16, binding was put at a Kd of 4.22 nM, the koff stood at 0.000226 s⁻¹ and the kon is 53500 M⁻¹ s⁻¹.

B17: CA645 gL4gH45 Fab (Fab, V domains shown)
VH: EVQLLESGGGLVQPGGSLRLSCAVSGIDLSNYAINWVRQAPGKGLEWIGIIWASGTTFYATWAKGRFTISRDNSKNTVYLQMNSLRAEDTAVYYCARTVPVYSTAPYFDLWGQGTLVTVSS
VL: DIQMTQSPSSVSASVGDRVTITCQSSPSVWSNFLSWYQQKPGKAPKLLIYEASKLTSGVPSRFSGSGSGTDFTLTISSLQPEDFATYYCGGGYSSISDTTFGGGTKVEIK
notes: as for B1
Turning to B17, binding was characterised by a dissociation constant (Kd) of 8.25 nM, the koff was 0.000444 s⁻¹ and the kon turned out to be 53800 M⁻¹ s⁻¹.

B18: CA645 gL4gH42 Fab (Fab, V domains shown)
VH: EVQLLESGGGLVQPGGSLRLSCAVSGIDLSNYAINWVRQAPGKGLEWIGIIWASGTTFYATWAKGRFTISRDNSKNTVYLQMNSLRAEDTAVYYCARTVPQYSTAPYFDLWGQGTLVTVSS
VL: DIQMTQSPSSVSASVGDRVTITCQSSPSVWSNFLSWYQQKPGKAPKLLIYEASKLTSGVPSRFSGSGSGTDFTLTISSLQPEDFATYYCGGGYSSISDTTFGGGTKVEIK
notes: as for B1
Molecule B18 had a Kd of 4.17 nM, a koff of 0.000222 s⁻¹ and a kon of 53100 M⁻¹ s⁻¹.
